Measured values: patent US20220040319A1 (Regeneron, published 2022)

How the values were obtained:
human MET on cells [1] = biological target: T1, human MET on cells (human, UniProt P08581 25-1390); assay: cell-based or functional assay
human MET on cells [2] = biological target: T1, human MET on cells; assay: cell-based or functional assay; remark: listed apart in the source
human MET on cells [3] = biological target: T1, human MET on cells; assay: cell-based or functional assay; remark: listed apart in the source
human MET on cells [4] = biological target: T1, human MET on cells; assay: cell-based or functional assay; remark: listed apart in the source
[5] = biological target: T2, hMet.mmh (human MET extracellular domain with C-terminal myc-myc-hexahistidine tag) (human, UniProt P08581 309-914; P08581 27-307); assay: SPR 37C, antibody captured
T2 construct: soluble monomeric MET; also called monomeric human MET
Method: Kinetic association (kₐ) and dissociation (kd) rate constants were determined as described in Example 3.
Throughout, for % Inhibition, HEK293/SRE-Luc Blocking Activity (HGF, 1 h mAb pre-bind): test concentration or dose not given here.

T2 sequence (P08581 other isoform, or with tags, fused parts or gaps limits assumed, chain 1 of 2): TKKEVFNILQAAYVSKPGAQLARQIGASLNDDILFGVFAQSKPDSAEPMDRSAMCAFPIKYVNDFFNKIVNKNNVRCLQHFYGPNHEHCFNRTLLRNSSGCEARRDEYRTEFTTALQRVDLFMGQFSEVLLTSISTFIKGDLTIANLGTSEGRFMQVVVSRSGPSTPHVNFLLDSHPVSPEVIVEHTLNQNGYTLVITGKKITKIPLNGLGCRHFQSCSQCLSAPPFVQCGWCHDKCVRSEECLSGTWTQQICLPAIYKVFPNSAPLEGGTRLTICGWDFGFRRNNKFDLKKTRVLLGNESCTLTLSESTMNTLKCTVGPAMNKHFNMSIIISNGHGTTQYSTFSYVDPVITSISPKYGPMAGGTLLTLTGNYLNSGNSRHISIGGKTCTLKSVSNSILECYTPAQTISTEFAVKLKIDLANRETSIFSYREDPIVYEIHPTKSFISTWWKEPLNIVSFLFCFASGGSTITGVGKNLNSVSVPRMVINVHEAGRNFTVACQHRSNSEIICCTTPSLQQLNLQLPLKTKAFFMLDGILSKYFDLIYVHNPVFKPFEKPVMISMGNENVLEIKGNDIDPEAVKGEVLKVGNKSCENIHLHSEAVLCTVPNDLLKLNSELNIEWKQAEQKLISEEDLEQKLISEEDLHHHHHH
T2 sequence (P08581 27-307 limits assumed, chain 2 of 2): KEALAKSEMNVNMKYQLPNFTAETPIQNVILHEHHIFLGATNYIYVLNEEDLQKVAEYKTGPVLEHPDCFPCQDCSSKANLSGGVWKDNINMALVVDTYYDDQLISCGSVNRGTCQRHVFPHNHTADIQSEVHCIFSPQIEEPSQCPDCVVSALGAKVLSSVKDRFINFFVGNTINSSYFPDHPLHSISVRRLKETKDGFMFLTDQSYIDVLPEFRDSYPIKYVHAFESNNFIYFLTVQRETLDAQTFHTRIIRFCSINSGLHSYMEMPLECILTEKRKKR
T1 sequence (P08581 25-1390 limits assumed, form in doubt): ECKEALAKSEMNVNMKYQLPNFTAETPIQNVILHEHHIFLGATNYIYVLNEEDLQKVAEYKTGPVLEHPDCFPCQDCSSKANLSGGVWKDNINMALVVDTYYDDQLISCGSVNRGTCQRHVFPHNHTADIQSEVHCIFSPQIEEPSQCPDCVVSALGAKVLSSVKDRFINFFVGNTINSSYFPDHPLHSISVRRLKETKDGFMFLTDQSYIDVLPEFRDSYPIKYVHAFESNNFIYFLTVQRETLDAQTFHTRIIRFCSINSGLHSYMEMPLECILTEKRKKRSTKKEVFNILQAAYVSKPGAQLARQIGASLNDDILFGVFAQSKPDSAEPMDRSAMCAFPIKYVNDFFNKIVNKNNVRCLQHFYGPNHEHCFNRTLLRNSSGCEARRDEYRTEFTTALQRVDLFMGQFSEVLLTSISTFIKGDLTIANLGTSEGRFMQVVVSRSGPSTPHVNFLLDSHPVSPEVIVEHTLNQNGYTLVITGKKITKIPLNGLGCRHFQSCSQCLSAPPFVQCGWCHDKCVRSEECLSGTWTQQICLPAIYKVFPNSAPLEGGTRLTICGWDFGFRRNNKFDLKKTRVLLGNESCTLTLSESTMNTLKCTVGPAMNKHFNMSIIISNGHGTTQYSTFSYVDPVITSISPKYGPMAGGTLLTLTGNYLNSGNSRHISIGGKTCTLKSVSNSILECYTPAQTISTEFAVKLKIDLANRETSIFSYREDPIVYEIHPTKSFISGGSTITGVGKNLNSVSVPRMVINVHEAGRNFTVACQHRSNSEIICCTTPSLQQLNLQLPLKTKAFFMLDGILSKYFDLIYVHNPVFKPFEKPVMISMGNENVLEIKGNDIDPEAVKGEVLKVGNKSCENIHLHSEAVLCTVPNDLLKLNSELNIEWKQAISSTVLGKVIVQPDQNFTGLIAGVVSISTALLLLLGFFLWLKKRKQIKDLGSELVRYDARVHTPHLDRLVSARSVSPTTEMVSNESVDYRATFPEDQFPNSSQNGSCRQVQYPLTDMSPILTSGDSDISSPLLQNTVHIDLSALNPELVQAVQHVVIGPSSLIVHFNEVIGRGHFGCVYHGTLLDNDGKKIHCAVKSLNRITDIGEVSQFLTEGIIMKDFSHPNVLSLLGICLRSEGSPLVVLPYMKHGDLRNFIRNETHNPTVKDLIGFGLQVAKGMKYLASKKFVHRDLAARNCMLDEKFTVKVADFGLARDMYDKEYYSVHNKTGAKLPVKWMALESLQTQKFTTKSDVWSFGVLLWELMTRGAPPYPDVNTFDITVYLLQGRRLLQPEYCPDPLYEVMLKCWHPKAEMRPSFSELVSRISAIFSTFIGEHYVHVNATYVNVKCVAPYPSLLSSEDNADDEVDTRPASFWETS

B1: H4H13331P2 (antibody, human IgG4, V domains shown)
VH: QVQLQESGPGLVKSSETLSLTCTVSGGSIRNFYWSWLRQPPGKGLEWIGHINYNGGTDYNPSLKSRVTISVDTSKNQFSLNLNSVTAADTAVYYCARQRFYGMDVWGPGTTVTVSS
VL: not shown
Q: With B1 as the binder, how does the “% Inhibition, HEK293/SRE-Luc Blocking Activity (HGF, 1 h mAb pre-bind)” value (human MET on cells [1]) read?
A: The value was 75%.

Q: And the “EC50, Ligand (HGF)-Independent HEK293/SRE-Luc Activation” value (human MET on cells [1])?
A: The value was 0.0023 nM.

Q: What about the “Fold Response, Ligand (HGF)-Independent HEK293/SRE-Luc Activation” value (human MET on cells [1]) of the same binder?
A: Its value is 7.1 fold.

Q: What about the “IC50, HEK293/SRE-Luc Blocking Activity (HGF, 1 h mAb pre-bind)” value (human MET on cells [1]) of the same binder?
A: The value was less than 0.01 nM.

Q: What about the “% Growth Inhibition, SNU5 cells” value (human MET on cells [2]) of the same binder?
A: Its value is 5%.

B2: H4H13299P2 (antibody, human IgG4, V domains shown)
VH: EVQLVESGGGLVQPGGSLRLSCAASGFIFSNYEMNWVRQAPGKGLEWISYITSSGNMKYYADSVKGRFTISRDNDKNSLYLQMSSLRVEDTAVYYCVRGGRFLEWLTYYVMVVWGQGTTVTVSS
VL: not shown
Q: For B2, which “% Inhibition, HEK293/SRE-Luc Blocking Activity (HGF, 1 h mAb pre-bind)” value (human MET on cells [1]) is on record?
A: The value was 51%.

Q: And the “EC50, Ligand (HGF)-Independent HEK293/SRE-Luc Activation” value (human MET on cells [1])?
A: Its value is 0.0037 nM.

Q: What about the “Fold Response, Ligand (HGF)-Independent HEK293/SRE-Luc Activation” value (human MET on cells [1]) of the same binder?
A: The value was 14.4 fold.

Q: And the “% Growth Inhibition, SNU5 cells” value (human MET on cells [2])?
A: Its value is -8%.

B3: H4H14638D (bispecific antibody, human IgG4, V domains shown)
VH 1: QVQLVESGGGVVQPGRSLRLSCAASGFTFSNFGMHWVRQAPGKGLEWVAGIWFDGSNKNYIDSVKGRFTISRDNSKNTLYLQMNSLRAEDTAVYYCAREGYDSGTDYIPYDIFDIWGQGTMVTVSS
VH 2: EVQLVESGGGLVQPGGSLRLSCAASGFIVTTNYMTWLRQAPGKGLEWVSLIYSSGHTYYADSVKGRFTISRHNSKNTLYLQMDSLRAEDTAVYYCASAFAADVFDIWGQGTMVTVSS
VL: not shown
Q: B3 was tested. Which “% Inhibition, HEK293/SRE-Luc Blocking Activity (HGF, 1 h mAb pre-bind)” value (human MET on cells [1]) did it give?
A: Its value is 79%.

Q: What about the “EC50, Ligand (HGF)-Independent HEK293/SRE-Luc Activation” value (human MET on cells [1]) of the same binder?
A: Its value is 5.9 nM.

Q: What about the “Fold Response, Ligand (HGF)-Independent HEK293/SRE-Luc Activation” value (human MET on cells [1]) of the same binder?
A: The value was 2.6 fold.

Q: And the “IC50, HEK293/SRE-Luc Blocking Activity (HGF, 1 h mAb pre-bind)” value (human MET on cells [1])?
A: Its value is 1.1 nM.

Q: What about the “Relative MET Level, SNU5 cells, 18 hrs” value (human MET on cells [3]) of the same binder?
A: The value was 0.35 relative to control (hFc).

B4: H4H13312P2 (antibody, human IgG4, V domains shown)
VH: EVQLVESGGGLVQPGGSLRLSCAASGFIVTTNYMTWLRQAPGKGLEWVSLIYSSGHTYYADSVKGRFTISRHNSKNTLYLQMDSLRAEDTAVYYCASAFAADVFDIWGQGTMVTVSS
VL: not shown
Q: B4 was tested. Which “% Inhibition, HEK293/SRE-Luc Blocking Activity (HGF, 1 h mAb pre-bind)” value (human MET on cells [1]) did it give?
A: The value was 48%.

Q: And the “EC50, Ligand (HGF)-Independent HEK293/SRE-Luc Activation” value (human MET on cells [1])?
A: Its value is 0.12 nM.

Q: What about the “% Growth Inhibition, SNU5 cells” value (human MET on cells [2]) of the same binder?
A: The value was 69%.

Q: What about the “IC50, SNU5 growth” value (human MET on cells [2]) of the same binder?
A: Its value is 0.78 nM.

Q: And the “IC50, 6-day in vitro cytotoxicity, A549” value (human MET on cells [4])?
A: Its value is greater than 100 nM.

Q: And the “IC50, 6-day in vitro cytotoxicity, EBC-1” value (human MET on cells [4])?
A: The value was greater than 100 nM.

Q: What about the “IC50, 6-day in vitro cytotoxicity, Hs746t” value (human MET on cells [4]) of the same binder?
A: Its value is greater than 100 nM.

Q: And the “Max % Kill, 6-day in vitro cytotoxicity, A549” value (human MET on cells [4])?
A: Its value is 7%.

Q: What about the “Max % Kill, 6-day in vitro cytotoxicity, EBC-1” value (human MET on cells [4]) of the same binder?
A: Its value is 30%.

Q: What about the “Max % Kill, 6-day in vitro cytotoxicity, Hs746t” value (human MET on cells [4]) of the same binder?
A: Its value is 0%.

B5: H4H16446D (bispecific antibody, human IgG4, V domains shown)
VH 1: QVQLVESGGGVVQPGRSLRLSCAVSGFTFSSYGMHWVRQAPGKGLEWVANIWYDGTNDYYPYSVKGRFTISRDNSQNTLYLQMNSLRAEDTAVYYCAREDFINYRSFDYWGQGTLVTVSS
VH 2: EVQLVESGGGLVQPGGSLRLSCAASGFIVTTNYMTWLRQAPGKGLEWVSLIYSSGHTYYADSVKGRFTISRHNSKNTLYLQMDSLRAEDTAVYYCASAFAADVFDIWGQGTMVTVSS
VL: not shown
notes: MET x MET bispecific, expressed as human IgG4; also called bispecific antibody No. 58
Q: Which T½ [5] does the source give for B5 here?
A: Its T½ is 1.86 h.

Q: What about the koff [5] of the same binder?
A: Its koff is 0.000103 s⁻¹.

B6: H4H14641D (bispecific antibody, human IgG4, V domains shown)
VH 1: QVQLVESGGGVVQPGRSLRLSCSASGFSFSHFGMHWVRQVPGGGLEWVTSIWFDGSNRYYADSLKGRFTISRDNSKNTLYLEMNSLRAEDTAVYYCVREGILGTTNPYDVFDVWGQGTMVTVSS
VH 2: EVQLVESGGGLVQPGGSLRLSCAASGFIVTTNYMTWLRQAPGKGLEWVSLIYSSGHTYYADSVKGRFTISRHNSKNTLYLQMDSLRAEDTAVYYCASAFAADVFDIWGQGTMVTVSS
VL: not shown
Q: Which results are given for B6?
A: % Inhibition, HEK293/SRE-Luc Blocking Activity (HGF, 1 h mAb pre-bind) (human MET on cells [1]): 75%; EC50, Ligand (HGF)-Independent HEK293/SRE-Luc Activation (human MET on cells [1]): 84 nM; Fold Response, Ligand (HGF)-Independent HEK293/SRE-Luc Activation (human MET on cells [1]): 4.4 fold; IC50, HEK293/SRE-Luc Blocking Activity (HGF, 1 h mAb pre-bind) (human MET on cells [1]): 2.7 nM; Relative MET Level, SNU5 cells, 18 hrs (human MET on cells [3]): 0.31 relative to control (hFc)

B7: H4H16447D (bispecific antibody, human IgG4, V domains shown)
VH 1: QVQLVESGGGVVQPGRSLRLSCAASGFTFSSYAMHWVRQAPGRGLEWVAVIWHDGDVEYYVDSVKDRFTISRDNSKSTLYLQMNSLRAEDTALYYCAREAWDLLRPFDYWGQGTLVTVSS
VH 2: EVQLVESGGGLVQPGGSLRLSCAASGFIVTTNYMTWLRQAPGKGLEWVSLIYSSGHTYYADSVKGRFTISRHNSKNTLYLQMDSLRAEDTAVYYCASAFAADVFDIWGQGTMVTVSS
VL: not shown
notes: MET x MET bispecific, expressed as human IgG4; also called bispecific antibody No. 154
Q: With B7 as the binder, how does the T½ [5] read?
A: The T½ was 0.227 h.

B8: H4H14638D (bispecific antibody, human IgG4, V domains shown)
VH 1: QVQLVESGGGVVQPGRSLRLSCAASGFTFSNFGMHWVRQAPGKGLEWVAGIWFDGSNKNYIDSVKGRFTISRDNSKNTLYLQMNSLRAEDTAVYYCAREGYDSGTDYIPYDIFDIWGQGTMVTVSS
VH 2: EVQLVESGGGLVQPGGSLRLSCAASGFIVTTNYMTWLRQAPGKGLEWVSLIYSSGHTYYADSVKGRFTISRHNSKNTLYLQMDSLRAEDTAVYYCASAFAADVFDIWGQGTMVTVSS
VL: not shown
notes: MET x MET bispecific, expressed as human IgG4
Q: B8 was tested. Which T½ [5] did it give?
A: The T½ was 1.17 h.

Q: What about the koff [5] of the same binder?
A: Its koff is 0.000165 s⁻¹.

B9: H4H14636D (bispecific antibody, human IgG4, V domains shown)
VH 1: EVQLVESGGGLVQPGGSLRLSCAASGFIFSNYEMNWVRQAPGKGLEWISYITSSGNMKYYADSVKGRFTISRDNDKNSLYLQMSSLRVEDTAVYYCVRGGRFLEWLTYYVMVVWGQGTTVTVSS
VH 2: EVQLVESGGGLVQPGGSLRLSCAASGFIVTTNYMTWLRQAPGKGLEWVSLIYSSGHTYYADSVKGRFTISRHNSKNTLYLQMDSLRAEDTAVYYCASAFAADVFDIWGQGTMVTVSS
VL: not shown
notes: MET x MET bispecific, expressed as human IgG4; also called bispecific antibody No. 74
Q: How did the T½ [5] turn out when B9 was run?
A: The T½ was no less than 19.2 h.

Q: And the koff [5]?
A: Its koff is no more than 1e-05 s⁻¹.
